The source of these data is PMC13354579 (EMBO Reports, 2026).

The experiment has as its target T1, RAD23A^UBL (human, UniProt P54725 1-84).
T1 construct: RAD23A, human, N-terminal ubiquitin-like domain, residues 1-84; The limits 1-84 are stated for the crystallised construct; also called UBL domain of RAD23A; RAD23A (1–84); source: E. coli (Rosetta2(DE3) for crystallisation), purified via GST tag and SEC
T1 sequence (looked up): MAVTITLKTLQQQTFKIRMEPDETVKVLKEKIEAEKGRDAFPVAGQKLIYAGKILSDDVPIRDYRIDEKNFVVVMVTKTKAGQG
Nature of the experiment: ITC; MicroCal PEAQ-ITC, 25 °C, 50 mM Tris-HCl pH 7.5, 150 mM NaCl, 250 µM TCEP; DUB in the syringe titrated into K48-linked polyUb in the cell, in other experiments the scarcest species in the cell; n = 2, mean ± SD. The settings on record: both partners purified.

In general, Kd refers to a measure of binding affinity in units of concentration. High values mean a looser complex, low ones a tighter complex.

B1: MINDY3^EF-hand (domain or fragment, human, UniProt Q9H8M7 297-370, looked up)
chain: ALVAPEAPSEQARRVFQTYDPEDNGFIPDSLLEDVMKALDLVSDPEYINLMKNKLDPEGLGIILLGPFLQEFFP
notes: MINDY3, human, EF-hand domain, residues 297-370; The limits 297-370 are stated for the crystallised construct; also called EF-hand domain of MINDY3; MINDY3 (297–370); source: E. coli (Rosetta2(DE3) for crystallisation), purified via GST tag and SEC
B1: the Kd was found to be 3.5 µM.
